The subject of experiment [1] is soluble MSRP. Put plainly: bead-binding competition assay: ligands interfering with binding of labeled soluble receptor to poly G beads, M-BSA beads or LTA. The note with it: inhibitor at 400 μg/ml. As to the method: The ability of the soluble MSRP to block scavenger receptor-mediated cellular metabolism of known MSRP ligands, such as radiolabeled endotoxin, whole Gram-positive bacteria, or LTA, is measured by competitive inhibition assays. […] This bead-binding assay can be used to measure the association of endotoxin, lipid IVA, LTA, and similar molecules, to soluble forms of the MSRP.

Experiment [2] deals with Gram-positive bacteria. Put plainly: microbial binding assay (whole cell assay), all species and strains of Table I. The conditions noted are these: for binding of [35S]s-bSR-I to Gram-positive bacteria: all species and strains tested (Table I). As to the method:
(§1) Gram-positive bacteria were grown overnight either on LB agar plates (L. monocytogenes, B. subtilis) or on 5% sheep blood agar plates (all other organisms). Fresh colonies were inoculated into Todd Hewitt Broth (DIFCO) and were grown to stationary phase (16-18 hours; 1×10^9 CFU/1 ml) at 37° C. without shaking. Initial experiments indicated greater binding of MSRP to organisms grown to stationary phase compared to organisms used at log phase. Thus, stationary phase organisms were used in all experiments, although results were similar for log phase organisms.
(§2) All bacterial strains were harvested by centrifugation at 3500×g for 10 minutes and washed twice in cold Buffer B (20 mM Tris base at pH 8.0/150 mM NaCl/0.05% NAN3) before resuspending to a final density of approximately 1×10^9 bacteria/ml (O.D.600 =2.0).
[^35 S]methionine-labeled conditioned medium was prepared from transfected CHO[s-bSRI]-A2 cells and untransfected CHO cells. The media were designated [^35 S]s-bSR-I medium (containing s-bSR-I) and [^35 S]control medium (containing no s-bSR-I) respectively. As described by D. Resnick et al., 268 J. Biol. Chem. 3538-3545 (1993), CHO[s-bSR-1]-A2 and untransfected CHO cells were plated at a density of 9×10^5 cells/100 mm dish in medium B. Cells were grown to 80% confluence (approximately 48 hours), washed, and metabolically labeled by addition of 4.5 ml of medium A prepared with methionine- and cysteine-freeHam's F-12 and supplemented with 0.2 mM L-cysteine, and 80 μCi/mi [^35 S]methionine (Trans ^35 S-label with 70% methionine, purchased from ICN Biomedicals, Irvine, Calif.). After a 5 hour incubation at 37° C., supernatants were collected, and protease inhibitors and Buffer A+BSA (20 mM Tris base at pH 8.0/150 mM NaCl/1 mM CaCl2; containing 2 mg/ml bovine serum albumin and 0.05% NAN3) were added at final concentrations of 1 mM phenylmethylsulfonylfluoride (PMSF) (Sigma, St. Louis, Mo.), 1 μM leupeptin (Sigma), and 1 μM pepstatin (Sigma); 2:1 volume ratio of supernatant to buffer. […]

The test system of experiment [3] is P388D1 cells. Put plainly: cell binding assay: FITC-labeled S. pyogenes T1/195/2 bound to macrophage-like cells expressing MSRP. The note with it: 30 minutes 37° C., mean ± SD of three experiments, without poly G 72±8. The class given is cell-based, murine. As to the method: The ability of poly G to inhibit S. pyogenes binding was used in experiments to examine the interaction of FITC-labeled pyogenes (strain T1/195/2) with a cultured murine macrophage-like cell line, P388D1, shown previously to express MSRP by J. Ashkenas et al., 34 J. Lipid Res. 983-1000 (1993).
P388D1 cells were maintained in dishes in Ham's F-12 with 10% fetal calf serum, 100 units/ml penicillin, and 100 μg/ml streptomycin. For experiments, approximately 12,500 cells were plated on 1 cm glass cover slips, in media lacking antibiotics. Cells were allowed to adhere for at least 24-36 hours, then washed in Ham's F-12 containing 10% fetal calf serum. S. pyogenes, either unlabeled or FITC-labeled, was added (final dilution of 1:250 from a stock solution of O.D.600 =1.0) in the presence or absence of varying concentrations of poly G. Mixtures were incubated for 30 minutes at 37° C. in 5% CO2, then washed three times in PBS, and fixed with 100% cold methanol. Samples containing non-FITC labeled organisms were Gram-stained, then cover slips were mounted with Moviol and DAPCO. Slides were viewed in blinded fashion by two observers using fluorescence and phase contrast microscopy and a Nikon Microphot FXA epifluorescence microscope. The results (bacteria bound per 100 P388D1 cells) represent the means ± standard deviations determined from three experiments in which at least 100 P388D1 cells were counted for each condition.

Experiment [4] concerns Streptococcus pyogenes. Put plainly: microbial binding assay (whole cell assay) of [35S]s-bSR-I. As to the method:
as §1, §2
(§3) [^35 S]methionine-labeled conditioned medium was prepared from transfected CHO[s-bSRI]-A2 cells and untransfected CHO cells. The media were designated [^35 S]s-bSR-I medium (containing s-bSR-I) and [^35 S]control medium (containing no s-bSR-I) respectively. As described by D. Resnick et al., 268 J. Biol. Chem. 3538-3545 (1993), CHO[s-bSR-1]-A2 and untransfected CHO cells were plated at a density of 9×10^5 cells/100 mm dish in medium B. Cells were grown to 80% confluence (approximately 48 hours), washed, and metabolically labeled by addition of 4.5 ml of medium A prepared with methionine- and cysteine-freeHam's F-12 and supplemented with 0.2 mM L-cysteine, and 80 μCi/mi [^35 S]methionine (Trans ^35 S-label with 70% methionine, purchased from ICN Biomedicals, Irvine, Calif.). After a 5 hour incubation at 37° C., supernatants were collected, and protease inhibitors and Buffer A+BSA (20 mM Tris base at pH 8.0/150 mM NaCl/1 mM CaCl2; containing 2 mg/ml bovine serum albumin and 0.05% NAN3) were added at final concentrations of 1 mM phenylmethylsulfonylfluoride (PMSF) (Sigma, St. Louis, Mo.), 1 μM leupeptin (Sigma), and 1 μM pepstatin (Sigma); 2:1 volume ratio of supernatant to buffer. The samples were then clarified by centrifugation (1000×g, 15 minutes, 4° C.) and stored in Falcon 2099 tubes that had been precoated with Buffer A+BSA.
(§4) Thirty minutes prior to binding assays, unlabeled L-methionine ((Sigma, St. Louis, Mo.) at 10 mM final concentration was added to suspensions of microorganisms grown as described above to minimize incorporation of free [^35 S]methionine into microbial proteins during the assays. One ml assay mixtures containing 200 μl of bacterial suspension (approximately2×10^8 bacteria), 50 μl of Buffer A (20 mM Tris base at pH 8.0/150 mM NaCl/1 mM CaCl2), and 750 μl of either [^35 S]s-bSR-I or [^35 S]control medium were prepared in microcentrifuge tubes and incubated overnight on a rotator at 4° C. Maleylated bovine serum albumin (M-BSA) was coupled to CNBr-activated Sepharose™ (Pharmacia Fine Chemicals, Piscataway, N.J.) at approximately 3 mg M-BSA/mi hydrated resin. Suspensions of M-BSA-coupled Sepharose™ beads (M-BSA beads) (25 μl ) were used in place of microorganism suspensions as positive controls.
(§5) After the overnight incubation, the bacteria or beads were pelleted by centrifugation in a microcentrifuge at 12,500×g for 5 minutes at 4° C. and washed twice with cold buffer A. In experiments examining the ability of LTA to inhibit the binding of the s-bSR-I to M-BSA beads, the beads were allowed to settle by gravity before each washing step, to prevent pelleting of LTA micelies. The washed pellets were then resuspended in SDS-PAGE sample buffer containing 2% β-mercaptoethanol, boiled for 5 minutes, and insoluble material was removed by centrifugation at 12,500×g for 2 minutes. The reduced samples were fractionated by electrophoresis through 10% polyacrylamide gels, as described by Resnick et al. (1993), and the labeled proteins were visualized by autoradiography with Kodak X-AR film. […]

The test system of experiment [5] is Enterococcus hirae. The description is as above. On the procedure: as §1, §2, §3, §4, §5
In experiment [6] the test system is Streptococcus agalactiae. The experiment is described as above. On the procedure: as §1, §2, §3, §4, §5
Experiment [7] has as its system S. pneumoniae. Described as above. Set-up: species or system Streptococcus pneumoniae. The note with it: two encapsulated and one rough strain. As to the method:
as §1, §2
[^35 S]methionine-labeled conditioned medium was prepared from transfected CHO[s-bSRI]-A2 cells and untransfected CHO cells. The media were designated [^35 S]s-bSR-I medium (containing s-bSR-I) and [^35 S]control medium (containing no s-bSR-I) respectively. […]

The test system of experiment [8] is Staphylococcus aureus. The experiment is described as above. As to the method: as §1, §2, §3, §4, §5
In experiment [9] the test system is Listeria monocytogenes. The experiment is described as above. On the procedure:
as §1, §2, §3, §4, §5

Experiment [10] relates to Bacillus subtilis. The experiment is described as above. On the procedure:
as §1, §2, §3, §4, §5

Experiment [11] has as its system Streptococcus mutans. The experiment is described as above. On the procedure: as §1, §2, §3, §4, §5

For the molecule poly C, the “competition with binding of labeled soluble receptor to poly G beads, M-BSA beads, or LTA” value (from here on “competition with binding … or LTA”) in [1] is “failed to compete”.
Take “polyGuanosine [poly G, reference compound]”: in experiment [2] (extent of competition varied slightly between organisms), the “competition of poly G with [35S]s-bSR-I binding to Gram-positive bacteria” value is on record as “competitive”. In experiment [1], the “competition with binding … or LTA” value is on record as “successful competitors”. Also, the “number of cell associated bacteria/100 P388D1 cells” value in experiment [3] (poly G 2 μg/ml) was 43±4 bacteria/100 P388D1 cells; in experiment [3] (poly G 20 μg/ml) it was 28±9 bacteria/100 P388D1 cells; in experiment [3] (poly G 200 μg/ml), 22±5 bacteria/100 P388D1 cells. Further, in [4] (poly G 400 μ/ml added to assay mixture), the “competition with binding of S. pyogenes to s-bSR-I” value is on record as “effective competitor”. Besides, the “competition with binding of receptor to Enterococcus hirae” value in [5] (400 μg/ml poly G) was “competed”. For the same molecule, the “competition with binding of receptor to S. agalactiae” value in experiment [6] (400 μg/ml poly G) is given as “competed”.
With “maleylated BSA: maleylated bovine serum albumin, MSRP ligand”, the “competition with binding … or LTA” value in experiment [1] is “successful competitors”.

B1: s-bSR-I: truncated, secreted trimeric form of the type I bovine macrophage scavenger receptor containing all four extracellular domains, expressed in CHO cells (protein, UniProt P21758 77-453, looked up)
extracellular domain: KWETKNCTVGSVNADISPSPEGKGNGSEDEMRFREAVMERMSNMESRIQYLSDNEANLLDAKNFQNFSITTDQRFNDVLFQLNSLLSSIQEHENIIGDISKSLVGLNTTVLDLQFSIETLNGRVQENAFKQQEEMRKLEERIYNASAEIKSLDEKQVYLEQEIKGEMKLLNNITNDLRLKDWEHSQTLKNITLLQGPPGPPGEKGDRGPPGQNGIPGFPGLIGTPGLKGDRGISGLPGVRGFPGPMGKTGKPGLNGQKGQKGEKGSGSMQRQSNTVRLVGGSGPHEGRVEIFHEGQWGTVCDDRWELRGGLVVCRSLGYKGVQSVHKRAYFGKGTGPIWLNEVFCFGKESSIEECRIRQWGVRACSHDEDAGVTCTT
modifications: extracellular domain
notes: truncated, secreted trimeric form of the type I bovine macrophage scavenger receptor containing all four extracellular domains, expressed in CHO cells
Take B1: the “binding of [35S]s-bSR-I to S. pneumoniae” value in [7] is given as “minimal binding”. Moreover, the figures for the “binding of [35S]s-bSR-I to Gram-positive bacteria” value in experiment [2] and in experiment [2] (listed as secreted Type I Bovine MSRP) were “bound” and “Bound”, respectively. For the same molecule, the “binding of [35S]s-bSR-I to S. pyogenes” value in experiment [4] (eleven strains, seven different M protein types (Table I), overnight 4° C., SDS-PAGE/autoradiography) is recorded as “bound”. Besides, the “dependence of [35S]s-bSR-I binding on bacterial protein synthesis or viability” value in experiment [4] (organisms preincubated with 50 μg/ml chloramphenicol or 0.05% NaN3, or killed at 60° C. for 10 minutes) is listed as “neither decreased”. Also, the “specificity of [35S]s-bSR-I binding to S. pyogenes” value in experiment [4] (strain T1/195/2) was “specific”. Also, in experiment [4] (type 28 strain T28/150A/5 and spontaneous M protein-negative mutant T28/51/4-4), the “s-bSR-I binding, M protein-negative mutant versus parent” value is “equivalently”. Further, the “[35S]s-bSR-I binding, acapsular mutant versus wild type” value in [4] (wild type 87-282 and hyaluronic acid-negative transposon mutant TX4) is on record as “equally well”. In experiment [5] (strain 9790, overnight 4° C., autoradiography), the “binding of [35S]s-bSR-I to Enterococcus hirae” value is “bound”. Also, the “binding of [35S]s-bSR-I to Staphylococcus aureus” value in [8] was “bound”. Also, the “[35S]s-bSR-I binding, capsule-minus transposon mutants versus parent strains” value in [8] (S. aureus isogenic mutants) and in experiment [6] (S. agalactiae isogenic mutants) was “equivalently or better” each time. Further, in [9], the “binding of [35S]s-bSR-I to Listeria monocytogenes” value is listed as “bound”. For the same molecule, the “binding of [35S]s-bSR-I to Bacillus subtilis” value in [10] is “bound”. Besides, in [11], the “binding of [35S]s-bSR-I to Streptococcus mutans” value is on record as “bound”. Moreover, the “binding of [35S]s-bSR-I to S. agalactiae” value in [6] (overnight 4° C., autoradiography) is reported as “bound”.
